Read-outs that look alike come from different tables or passages of the source.
Experiments:
Assay type in all cases: binding
[1] = tested on: SARS-CoV-2 gRNA and sgRNAs; conditions: for target (unweighted spectral count in RNP capture): Probe II capture, LC-MS/MS LFQ; for background (unweighted spectral count in control): no-probe control pull-down, used as background for Probe II
gRNA of HCoV-OC43 = conditions: for target (spectral count) / background (spectral count): type g_36_m, 36 hpi, Probe I; for target (spectral count): HCoV-OC43-infected HCT-8 cells; for background (spectral count): uninfected-probe control
HCoV-OC43 gRNA and sgRNA = conditions: for target (unweighted spectral count, OC43 Probe II capture): tested against no-probe control, FDR<10%

Row | Molecule | target (unweighted spectral count in RNP capture) [1] | background (unweighted spectral count in control) [1] | target (spectral count) (gRNA of HCoV-OC43) | background (spectral count) (gRNA of HCoV-OC43) | target (unweighted spectral count, OC43 Probe II capture) (HCoV-OC43 gRNA and sgRNA; 24 hpi, type n_24_v) | other results
1 | HRNPA2B1 (protein, UniProt P22626 1-353, looked up) Heterogeneous nuclear …: MEKTLETVPLERKKREKEQFRKLFIGGLSFETTEESLRNYYEQWGKLTDCVVMRDPASKRSRGFGFVTFSSMAEVDAAMAARPHSIDGRVVEPKRAVAREESGKPGAHVTVKKLFVGGIKEDTEEHHLRDYFEEYGKIDTIEIITDRQSGKKRGFGFVTFDDHDPVDKIVLQKYHTINGHNAEVRKALSRQEMQEVQSSRSGRGGNFGFGDSRGGGGNFGPGPGSNFRGGSDGYGSGRGFGDGYNGYGGGPGGGNFGGSPGYGGGRGGYGGGGPGYGNQGGGYGGGYDNYGGGNYGSGNYNDFGNYNQQPSNYGPMKSGNFGGSRNMGGPYGGGNYGPGGSGGSGGYGGRSRY | 88 | 1 | – | – | – | –
2 | DOX3X (protein, UniProt O00571 2-662, looked up) ATP-dependent RNA helicase …: SHVAVENALGLDQQFAGLDLNSSDNQSGGSTASKGRYIPPHLRNREATKGFYDKDSSGWSSSKDKDAYSSFGSRSDSRGKSSFFSDRGSGSRGRFDDRGRSDYDGIGSRGDRSGFGKFERGGNSRWCDKSDEDDWSKPLPPSERLEQELFSGGNTGINFEKYDDIPVEATGNNCPPHIESFSDVEMGEIIMGNIELTRYTRPTPVQKHAIPIIKEKRDLMACAQTGSGKTAAFLLPILSQIYSDGPGEALRAMKENGRYGRRKQYPISLVLAPTRELAVQIYEEARKFSYRSRVRPCVVYGGADIGQQIRDLERGCHLLVATPGRLVDMMERGKIGLDFCKYLVLDEADRMLDMGFEPQIRRIVEQDTMPPKGVRHTMMFSATFPKEIQMLARDFLDEYIFLAVGRVGSTSENITQKVVWVEESDKRSFLLDLLNATGKDSLTLVFVETKKGADSLEDFLYHEGYACTSIHGDRSQRDREEALHQFRSGKSPILVATAVAARGLDISNVKHVINFDLPSDIEEYVHRIGRTGRVGNLGLATSFFNERNINITKDLLDLLVEAKQEVPSWLENMAYEHHYKGSSRGRSKSSRFSGGFGARDYRQSSGASSSSFSSSRASSSRSGGGGHGSSRGFGGGGYGGFYNSDGYGGNYNSQGVDWWGN | 49 | 1 | – | – | – | –
3 | HRNPR (protein, UniProt O43390 2-633, looked up) Heterogeneous nuclear …: ANQVNGNAVQLKEEEEPMDTSSVTHTEHYKTLIEAGLPQKVAERLDEIFQTGLVAYVDLDERAIDALREFNEEGALSVLQQFKESDLSHVQNKSAFLCGVMKTYRQREKQGSKVQESTKGPDEAKIKALLERTGYTLDVTTGQRKYGGPPPDSVYSGVQPGIGTEVFVGKIPRDLYEDELVPLFEKAGPIWDLRLMMDPLSGQNRGYAFITFCGKEAAQEAVKLCDSYEIRPGKHLGVCISVANNRLFVGSIPKNKTKENILEEFSKVTEGLVDVILYHQPDDKKKNRGFCFLEYEDHKSAAQARRRLMSGKVKVWGNVVTVEWADPVEEPDPEVMAKVKVLFVRNLATTVTEEILEKSFSEFGKLERVKKLKDYAFVHFEDRGAAVKAMDEMNGKEIEGEEIEIVLAKPPDKKRKERQAARQASRSTAYEDYYYHPPPRMPPPIRGRGRGGGRGGYGYPPDYYGYEDYYDDYYGYDYHDYRGGYEDPYYGYDDGYAVRGRGGGRGGRGAPPPPRGRGAPPPRGRAGYSQRGAPLGPPRGSRGGRGGPAQQQRGRGSRGSRGNRGGNVGGKRKADGYNQPDSKRRQTNNQQNWGSQPIAQQPLQQGGDYSGNYGYNNDNQEFYQDTYGQQWK | 32 | 1 | – | – | – | –
4 | RAVER1 (protein, UniProt Q8IY67 2-606, looked up) Ribonucleoprotein PTB-binding …: AADVSVTHRPPLSPKSGAEVEAGDAAERRAPEEELPPLDPEEIRKRLEHTERQFRNRRKILIRGLPGDVTNQEVHDLLSDYELKYCFVDKYKGTAFVTLLNGEQAEAAINAFHQSRLRERELSVQLQPTDALLCVANLPPSLTQQQFEELVRPFGSLERCFLVYSERTGQSKGYGFAEYMKKDSAARAKSDLLGKPLGPRTLYVHWTDAGQLTPALLHSRCLCVDRLPPGFNDVDALCRALSAVHSPTFCQLACGQDGQLKGFAVLEYETAEMAEEAQQQADGLSLGGSHLRVSFCAPGPPGRSMLAALIAAQATALNRGKGLLPEPNILQLLNNLGPSASLQLLLNPLLHGSAGGKQGLLGAPPAMPLLNGPALSTALLQLALQTQGQKKPGILGDSPLGALQPGAQPANPLLGELPAGGGLPPELPPRRGKPPPLLPSVLGPAGGDREALGLGPPAAQLTPPPAPVGLRGSGLRGPLSHFYSGSPTSYFTSGLQAGLKQSHLSKAIGSSPLGSGEGLLGLSPGPNGHSHLLKVRAGGGDMQGWEAPAPQRPLTRPALPSVSRPHWAARNAALPTCCPRPSPAQKAAMWASTPRASAATTRTPT | – | – | – | – | – | target (spectral count, OC43 Probe I RNP capture) (gRNA of HCoV-OC43; type n_48_v: 48 hours post-infection, infected cells, OC43 Probe I, unweighted spectral count): 5; background (spectral count, no-probe control) (gRNA of HCoV-OC43; type n_48_v: 48 hours post-infection, no-probe control on infected cells): 1; target (unweighted spectral count, OC43 Probe II) (HCoV-OC43 gRNA and sgRNA; type n_48_v, 48 hpi, OC43 Probe II capture on infected cells): 5; background (unweighted spectral count, no-probe control) (HCoV-OC43 gRNA and sgRNA; type n_48_v, 48 hpi, no-probe control on infected cells): 1
5 | PDIA6: host protein, UniProt Q15084 (protein, UniProt Q15084 20-440, looked up) Protein disulfide-isomerase A6: LYSSSDDVIELTPSNFNREVIQSDSLWLVEFYAPWCGHCQRLTPEWKKAATALKDVVKVGAVDADKHHSLGGQYGVQGFPTIKIFGSNKNRPEDYQGGRTGEAIVDAALSALRQLVKDRLGGRSGGYSSGKQGRSDSSSKKDVIELTDDSFDKNVLDSEDVWMVEFYAPWCGHCKNLEPEWAAAASEVKEQTKGKVKLAAVDATVNQVLASRYGIRGFPTIKIFQKGESPVDYDGGRTRSDIVSRALDLFSDNAPPPELLEIINEDIAKRTCEEHQLCVVAVLPHILDTGAAGRNSYLEVLLKLADKYKKKMWGWLWTEAGAQSELETALGIGGFGYPAMAAINARKMKFALLKGSFSEQGINEFLRELSFGRGSTAPVGGGAFPTIVEREPWDGRDGELPVEDDIDLSDVELDDLGKDEL | – | – | 12 | 1 | 4 | target (unweighted spectral count, OC43 Probe II capture) (HCoV-OC43 gRNA and sgRNA; 36 hpi, type n_36_v): 7; target (spectral count) (HCoV-OC43 gRNA and sgRNA; type s_36_m, HCoV-OC43-infected HCT-8 cells, 36 hpi, Probe II): 7; background (spectral count) (HCoV-OC43 gRNA and sgRNA; type s_36_m, uninfected-probe control, 36 hpi, Probe II): 1
6 | LUC7L2: host protein, UniProt Q9Y383 (protein, UniProt Q9Y383 1-392, looked up) Putative RNA-binding protein …: MSAQAQMRAMLDQLMGTSRDGDTTRQRIKFSDDRVCKSHLLNCCPHDVLSGTRMDLGECLKVHDLALRADYEIASKEQDFFFELDAMDHLQSFIADCDRRTEVAKKRLAETQEEISAEVAAKAERVHELNEEIGKLLAKVEQLGAEGNVEESQKVMDEVEKARAKKREAEEVYRNSMPASSFQQQKLRVCEVCSAYLGLHDNDRRLADHFGGKLHLGFIEIREKLEELKRVVAEKQEKRNQERLKRREEREREEREKLRRSRSHSKNPKRSRSREHRRHRSRSMSRERKRRTRSKSREKRHRHRSRSSSRSRSRSHQRSRHSSRDRSRERSKRRSSKERFRDQDLASCDRDRSSRDRSPRDRDRKDKKRSYESANGRSEDRRSSEEREAGEI | – | – | 9 | 1 | 4 | –
